The assay relates to HEK293FT cells transfected with TF library. The assay is described as follows: Screening of TF condensates based on fluorescent puncta. Particulars: Figure 1B numerical data; TF library screen, one value per transcriptional factor. Format: cell-based. In short, it runs like this: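 HEK293FT, PEI transfection of TF library, 60 h; ±glucose 12 h; 4% PFA fix, 0.05% Triton X-100 permeabilization, 5% BSA block; anti-Flag/anti-GAL4 overnight at 4 °C, Alexa 488 secondary 1 h; high-content imaging, 50 fields/well.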

B1: SCX (protein, UniProt Q7RTU7 1-201, looked up)
Basic helix-loop-helix …: MSFATLRPAPPGRYLYPEVSPLSEDEDRGSDSSGSDEKPCRVHAARCGLQGARRRAGGRRAGGGGPGGRPGREPRQRHTANARERDRTNSVNTAFTALRTLIPTEPADRKLSKIETLRLASSYISHLGNVLLAGEACGDGQPCHSGPAFFHAARAGSPPPPPPPPPARDGENTQPKQICTFCLSNQRKLSKDRDRKTAIRS
As to B1, the “Z score of condensed fraction” value is listed as -0.06618.

B2: SALL1 (protein, UniProt Q9NSC2 1-1324, looked up)
Sal-like protein 1: MSRRKQAKPQHFQSDPEVASLPRRDGDTEKGQPSRPTKSKDAHVCGRCCAEFFELSDLLLHKKNCTKNQLVLIVNENPASPPETFSPSPPPDNPDEQMNDTVNKTDQVDCSDLSEHNGLDREESMEVEAPVANKSGSGTSSGSHSSTAPSSSSSSSSSSGGGGSSSTGTSAITTSLPQLGDLTTLGNFSVINSNVIIENLQSTKVAVAQFSQEARCGGASGGKLAVPALMEQLLALQQQQIHQLQLIEQIRHQILLLASQNADLPTSSSPSQGTLRTSANPLSTLSSHLSQQLAAAAGLAQSLASQSASISGVKQLPPIQLPQSSSGNTIIPSNSGSSPNMNILAAAVTTPSSEKVASSAGASHVSNPAVSSSSSPAFAISSLLSPASNPLLPQQASANSVFPSPLPNIGTTAEDLNSLSALAQQRKSKPPNVTAFEAKSTSDEAFFKHKCRFCAKVFGSDSALQIHLRSHTGERPFKCNICGNRFSTKGNLKVHFQRHKEKYPHIQMNPYPVPEHLDNIPTSTGIPYGMSIPPEKPVTSWLDTKPVLPTLTTSVGLPLPPTLPSLIPFIKTEEPAPIPISHSATSPPGSVKSDSGGPESATRNLGGLPEEAEGSTLPPSGGKSEESGMVTNSVPTASSSVLSSPAADCGPAGSATTFTNPLLPLMSEQFKAKFPFGGLLDSAQASETSKLQQLVENIDKKATDPNECIICHRVLSCQSALKMHYRTHTGERPFKCKICGRAFTTKGNLKTHYSVHRAMPPLRVQHSCPICQKKFTNAVVLQQHIRMHMGGQIPNTPVPDSYSESMESDTGSFDEKNFDDLDNFSDENMEDCPEGSIPDTPKSADASQDSLSSSPLPLEMSSIAALENQMKMINAGLAEQLQASLKSVENGSIEGDVLTNDSSSVGGDMESQSAGSPAISESTSSMQALSPSNSTQEFHKSPSIEEKPQRAVPSEFANGLSPTPVNGGALDLTSSHAEKIIKEDSLGILFPFRDRGKFKNTACDICGKTFACQSALDIHYRSHTKERPFICTVCNRGFSTKGNLKQHMLTHQMRDLPSQLFEPSSNLGPNQNSAVIPANSLSSLIKTEVNGFVHVSPQDSKDTPTSHVPSGPLSSSATSPVLLPALPRRTPKQHYCNTCGKTFSSSSALQIHERTHTGEKPFACTICGRAFTTKGNLKVHMGTHMWNSTPARRGRRLSVDGPMTFLGGNPVKFPEMFQKDLAARSGSGDPSSFWNQYAAALSNGLAMKANEISVIQNGGIPPIPGSLGSGNSSPVSGLTGNLERLQNSEPNAPLAGLEKMASSENGTNFRFTRFVEDSKEIVTS
Turning to B2, the “Z score of condensed fraction” value was -0.9814.

B3: RXRA (protein, UniProt P19793 1-462, looked up)
Retinoic acid receptor …: MDTKHFLPLDFSTQVNSSLTSPTGRGSMAAPSLHPSLGPGIGSPGQLHSPISTLSSPINGMGPPFSVISSPMGPHSMSVPTTPTLGFSTGSPQLSSPMNPVSSSEDIKPPLGLNGVLKVPAHPSGNMASFTKHICAICGDRSSGKHYGVYSCEGCKGFFKRTVRKDLTYTCRDNKDCLIDKRQRNRCQYCRYQKCLAMGMKREAVQEERQRGKDRNENEVESTSSANEDMPVERILEAELAVEPKTETYVEANMGLNPSSPNDPVTNICQAADKQLFTLVEWAKRIPHFSELPLDDQVILLRAGWNELLIASFSHRSIAVKDGILLATGLHVHRNSAHSAGVGAIFDRVLTELVSKMRDMQMDKTELGCLRAIVLFNPDSKGLSNPAEVEALREKVYASLEAYCKHKYPEQPGRFAKLLLRLPALRSIGLKCLEHLFFFKLIGDTPIDTFLMEMLEAPHQMT
In the case of B3, the “Z score of condensed fraction” value is reported as -0.874.

B4: RYBP (protein, UniProt Q8N488 1-228, looked up)
RING1 and YY1-binding protein: MTMGDKKSPTRPKRQAKPAADEGFWDCSVCTFRNSAEAFKCSICDVRKGTSTRKPRINSQLVAQQVAQQYATPPPPKKEKKEKVEKQDKEKPEKDKEISPSVTKKNTNKKTKPKSDILKDPPSEANSIQSANATTKTSETNHTSRPRLKNVDRSTAQQLAVTVGNVTVIITDFKEKTRSSSTSSSTVTSSAGSEQQNQSSSGSESTDKGSSRSSTPKGDMSAVNDESF
As for B4, the “Z score of condensed fraction” value is -0.5834.

B5: SCRT1 (protein, UniProt Q99M85 1-348, looked up)
Transcriptional repressor …: MPRSFLVKKVKLDTFSSADLDSSYGRARSDLGVRLQDKGYLSDYVGPASVYDGDAEAALLKGPSPEPMYAAAVRGELGPAASGSAPPPTPRPELATAAGGYINGDAAVSEGYAADAFFITDGRSRRKAANANAAAAPSTASVAAPDSDAGGGGGPGTRGSGSGSASRGGTRVGAGTEARAGSGATGAGGRHACGECGKTYATSSNLSRHKQTHRSLDSQLARRCPTCGKVYVSMPAMAMHLLTHDLRHKCGVCGKAFSRPWLLQGHMRSHTGEKPFGCAHCGKAFADRSNLRAHMQTHSAFKHFQCKRCKKSFALKSYLNKHYESACFKGGASGPATPAPPQLSPVQA
As to B5, the “Z score of condensed fraction” value turned out to be 0.5906.

B6: BBX (protein, UniProt Q8WY36 1-941, looked up)
HMG box transcription factor …: MKGSNRNKDHSAEGEGVGKRPKRKCLQWHPLLAKKLLDFSEEEEEEDEEEDIDKVQLLGADGLEQDVGETEDDESPEQRARRPMNAFLLFCKRHRSLVRQEHPRLDNRGATKILADWWAVLDPKEKQKYTDMAKEYKDAFMKANPGYKWCPTTNKPVKSPTPTVNPRKKLWAFPSDSSRDLPSPKKAKTEEMPQLNFGMADPTQMGGLSMLLLAGEHALGTPEVSSGTCRPDVSESPELRQKSPLFQFAEISSSTSHSDASTKQCQTSALFQFAEISSNTSQLGGAEPVKRCGKSALFQLAEMCLASEGMKMEESKLIKAKESDGGRIKELEKGKEEKEIKMEKTDETRLQKEAEFEKSAKENLRDSKELRNFEALQIDDIMAIKMEDPKEIRKEELEEDHKCSHFPDFSYSASSKIIISDVPSRKDHMCHPHGIMIIEDPAALNKPEKLKKKKKKSKMDRHGNDKSTPKKTCKKRQSSESDIESVIYTIEAVAKGDWGIEKLGDTPRKKVRTSSSGKGSILDAKPPKKKVKSREKKMSKEKSSDTTKESRPPDFISISASKNISGETPEGIKAEPLTPMEDALPPSLSGQAKPEDSDCHRKIETCGSRKSERSCKGALYKTLVSEGMLTSLRANVDRGKRSSGKGNSSDHEGCWNEESWTFSQSGTSGSKKFKKTKPKEDCLLGSAKLDEEFEKKFNSLPQYSPVTFDRKCVPVPRKKKKTGNVSSEPTKTSKGPFQSQKKNLFHKIVSKYKHKKEKPNVPEKGSGDKWSNKQLFLDAIHPTEAIFSEDRNTMEPVHKVKNIPSIFNTPEPTTTQEPLVGSQKRKARKTKITHLVRTADGRVSPAGGTLDDKPKEQLQRSLPKATETDCNDKCSHNTEVGETRSSTPEMPAVSAFFSLAALAEVAAMENVHRGQRSTPLTHDGQPKEMPQAPVLISCADQ
Consider B6, for which the “Z score of condensed fraction” value is given as 1.56.

B7: SETD7 (protein, UniProt Q8WTS6 1-366, looked up)
Histone-lysine …: MDSDDEMVEEAVEGHLDDDGLPHGFCTVTYSSTDRFEGNFVHGEKNGRGKFFFFDGSTLEGYYVDDALQGQGVYTYEDGGVLQGTYVDGELNGPAQEYDTDGRLIFKGQYKDNIRHGVCWIYYPDGGSLVGEVNEDGEMTGEKIAYVYPDERTALYGKFIDGEMIEGKLATLMSTEEGRPHFELMPGNSVYHFDKSTSSCISTNALLPDPYESERVYVAESLISSAGEGLFSKVAVGPNTVMSFYNGVRITHQEVDSRDWALNGNTLSLDEETVIDVPEPYNHVSKYCASLGHKANHSFTPNCIYDMFVHPRFGPIKCIRTLRAVEADEELTVAYGYDHSPPGKSGPEAPEWYQVELKAFQATQQK
In the case of B7, the “Z score of condensed fraction” value is 0.4495.

B8: SETD8 (protein, UniProt Q9NQR1 1-393, looked up)
N-lysine methyltransferase …: MGEGGAAAALVAAAAAAAAAAAAVVAGQRRRRLGRRARCHGPGRAAGGKMSKPCAVEAAAAAVAATAPGPEMVERRGPGRPRTDGENVFTGQSKIYSYMSPNKCSGMRFPLQEENSVTHHEVKCQGKPLAGIYRKREEKRNAGNAVRSAMKSEEQKIKDARKGPLVPFPNQKSEAAEPPKTPPSSCDSTNAAIAKQALKKPIKGKQAPRKKAQGKTQQNRKLTDFYPVRRSSRKSKAELQSEERKRIDELIESGKEEGMKIDLIDGKGRGVIATKQFSRGDFVVEYHGDLIEITDAKKREALYAQDPSTGCYMYYFQYLSKTYCVDATRETNRLGRLINHSKCGNCQTKLHDIDGVPHLILIASRDIAAGEELLYDYGDRSKASIEAHPWLKH
As for B8, the “Z score of condensed fraction” value is -0.8816.

B9: RUNX3 (protein, UniProt Q13761 1-415, looked up)
Runt-related transcription …: MRIPVDPSTSRRFTPPSPAFPCGGGGGKMGENSGALSAQAAVGPGGRARPEVRSMVDVLADHAGELVRTDSPNFLCSVLPSHWRCNKTLPVAFKVVALGDVPDGTVVTVMAGNDENYSAELRNASAVMKNQVARFNDLRFVGRSGRGKSFTLTITVFTNPTQVATYHRAIKVTVDGPREPRRHRQKLEDQTKPFPDRFGDLERLRMRVTPSTPSPRGSLSTTSHFSSQPQTPIQGTSELNPFSDPRQFDRSFPTLPTLTESRFPDPRMHYPGAMSAAFPYSATPSGTSISSLSVAGMPATSRFHHTYLPPPYPGAPQNQSGPFQANPSPYHLYYGTSSGSYQFSMVAGSSSGGDRSPTRMLASCTSSAASVAAGNLMNPSLGGQSDGVEADGSHSNSPTALSTPGRMDEAVWRPY
With B9, the “Z score of condensed fraction” value is -0.4732.

B10: RXRG (protein, UniProt P48443 1-463, looked up)
Retinoic acid receptor …: MYGNYSHFMKFPAGYGGSPGHTGSTSMSPSAALSTGKPMDSHPSYTDTPVSAPRTLSAVGTPLNALGSPYRVITSAMGPPSGALAAPPGINLVAPPSSQLNVVNSVSSSEDIKPLPGLPGIGNMNYPSTSPGSLVKHICAICGDRSSGKHYGVYSCEGCKGFFKRTIRKDLIYTCRDNKDCLIDKRQRNRCQYCRYQKCLVMGMKREAVQEERQRSRERAESEAECATSGHEDMPVERILEAELAVEPKTESYGDMNMENSTNDPVTNICHAADKQLFTLVEWAKRIPHFSDLTLEDQVILLRAGWNELLIASFSHRSVSVQDGILLATGLHVHRSSAHSAGVGSIFDRVLTELVSKMKDMQMDKSELGCLRAIVLFNPDAKGLSNPSEVETLREKVYATLEAYTKQKYPEQPGRFAKLLLRLPALRSIGLKCLEHLFFFKLIGDTPIDTFLMEMLETPLQIT
With B10, the “Z score of condensed fraction” value is 0.0107.

B11: SCAND1 (protein, UniProt P57086 1-179, looked up)
SCAN domain-containing …: MAATEPILAATGSPAAVPPEKLEGAGSSSAPERNCVGSSLPEASPPAPEPSSPNAAVPEAIPTPRAAASAALELPLGPAPVSVAPQAEAEARSTPGPAGSRLGPETFRQRFRQFRYQDAAGPREAFRQLRELSRQWLRPDIRTKEQIVEMLVQEQLLAILPEAARARRIRRRTDVRITG
For B11, the “Z score of condensed fraction” value is -0.8992.
